Data reported in patent publication US20210128683A1 (RISE BIOPHARMACEUTICALS, published 2021).

Tests used:
CXCR2 = target: T1, CXCR2 (UniProt P25025 1-360, limits assumed); assay: indirect ELISA, ONCO P8-CXCR2 complex formation
T1 construct: also called IL-8R
T1 sequence (looked up): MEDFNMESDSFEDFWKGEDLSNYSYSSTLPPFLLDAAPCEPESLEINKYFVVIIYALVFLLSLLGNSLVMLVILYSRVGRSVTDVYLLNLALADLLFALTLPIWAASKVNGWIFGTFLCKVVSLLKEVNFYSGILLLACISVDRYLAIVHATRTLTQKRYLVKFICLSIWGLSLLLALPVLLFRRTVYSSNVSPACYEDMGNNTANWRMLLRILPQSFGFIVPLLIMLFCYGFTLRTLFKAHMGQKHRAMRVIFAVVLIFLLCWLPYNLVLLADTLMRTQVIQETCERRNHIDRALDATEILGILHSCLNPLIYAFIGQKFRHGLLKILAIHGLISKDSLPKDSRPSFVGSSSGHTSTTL

CXCR1 = target: T2, CXCR1 (UniProt P25024 1-350, limits assumed); assay: indirect ELISA, ONCO P8-CXCR1 complex formation
T2 construct: also called IL-8R
T2 sequence (looked up): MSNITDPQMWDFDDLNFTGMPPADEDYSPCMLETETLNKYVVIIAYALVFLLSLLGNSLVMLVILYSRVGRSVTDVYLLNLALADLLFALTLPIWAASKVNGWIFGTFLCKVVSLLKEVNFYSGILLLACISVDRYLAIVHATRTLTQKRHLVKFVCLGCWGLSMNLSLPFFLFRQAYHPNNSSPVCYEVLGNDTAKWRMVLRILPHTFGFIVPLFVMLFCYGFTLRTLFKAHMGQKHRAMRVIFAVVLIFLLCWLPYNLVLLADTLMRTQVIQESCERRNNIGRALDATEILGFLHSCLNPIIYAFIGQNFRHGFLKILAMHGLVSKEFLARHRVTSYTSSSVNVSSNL
From the text: The Kd Equation include: (1) i=A_{450 nm}/A^max_{450 nm}, then i=Ligand/Ligand^max; (2) 1/(1−i)=(Ligₜₒₜ/i)/Kd−b, b=fqSrec/Kd.

B1: ONCO P-8 (peptide)
chain: GSKELRCQCIRSYSKPFHPKFIKELRVIPASQFCANTEIIVKLSDGRELCLDPKENWVQRVVEKFLKRAENS
notes: Designed analogue of CXCL8 (IL-8), described as an antagonist of CXCR1 and CXCR2; also called chemokine receptor antagonistic modified peptide
- Kd (CXCR2): 0.139 µM
- Kd (CXCR1): 0.286 µM
